Values quoted from earlier work in PMC3792554.

Target: IL-18 (Homo sapiens) (UniProt Q14116)
Sequence (Q14116 37-193): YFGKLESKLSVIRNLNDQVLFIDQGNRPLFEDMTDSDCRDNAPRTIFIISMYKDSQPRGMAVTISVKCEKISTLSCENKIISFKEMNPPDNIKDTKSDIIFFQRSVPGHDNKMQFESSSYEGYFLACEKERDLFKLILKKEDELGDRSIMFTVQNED

Chain of IL-18BP (O95998 31-194): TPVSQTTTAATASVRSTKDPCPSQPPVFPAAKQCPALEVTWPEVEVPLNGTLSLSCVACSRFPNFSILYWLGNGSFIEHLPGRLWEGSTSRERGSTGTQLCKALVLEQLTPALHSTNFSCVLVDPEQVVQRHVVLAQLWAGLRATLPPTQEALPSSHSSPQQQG

IL-18BP (from UniProt O95998)
Kd: 0.4 nM
